Laboratory results published in the supplement of paper PMC9112550, “Optimization of the antimicrobial peptide Bac7 by deep mutational scanning” (BMC Biology, 2022).

What follows are sequences tested on Escherichia coli TOP10 (assay: shrunken log2 fold change of peptide-encoding DNA abundance (4.5 h post-induction vs induction); higher = less antimicrobial activity (less host growth inhibition)). Settings: time post-induction: 4.5 h; library: site-saturation at positions 5, 18, 19, 20.
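Further: peptides expressed intracellularly from a pBAD plasmid library in pooled LB shake-flask culture, induced with 0.3% L-arabinose, DNA abundance read by NGS, three biological replicates, DESeq2 with apeglm shrinkage.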

RRIRLRPPRLPRPRPRPRMFPRP and RRIRNRPPRLPRPRPRPPKAPRP are within 0.2 log units of each other in “shrunken log2 fold change” value: -0.0408 for the first, 0.00248 for the second.

Going from RRIRTRPPRLPRPRPRPGAYPRP to RRIRHRPPRLPRPRPRPKPEPRP, the “shrunken log2 fold change” value rises from -0.143 to 0.0966.

RRIRNRPPRLPRPRPRPLDTPRP and RRIRARPPRLPRPRPRPKDKPRP are within 0.2 log units of each other in “shrunken log2 fold change” value: -0.0954 for the first, 0.0564 for the second.

RRIRSRPPRLPRPRPRPDYPPRP and RRIRKRPPRLPRPRPRPTNHPRP are within 0.2 log units of each other in “shrunken log2 fold change” value: -0.0733 for the first, -0.0148 for the second.

Compared with RRIRQRPPRLPRPRPRPHKGPRP, RRIRPRPPRLPRPRPRPAEWPRP is higher in “shrunken log2 fold change” value: -0.214 for the first, 0.308 for the second.

Compared with RRIRHRPPRLPRPRPRPAEEPRP, RRIRDRPPRLPRPRPRPMFPPRP is lower in “shrunken log2 fold change” value: 0.175 for the first, -0.257 for the second.

Compared with RRIRERPPRLPRPRPRPFNQPRP, RRIRQRPPRLPRPRPRPNIGPRP is higher in “shrunken log2 fold change” value: -0.279 for the first, -0.0212 for the second.

First: RRIRHRPPRLPRPRPRPAYPPRP
Second: RRIRRRPPRLPRPRPRPRLMPRP
The “shrunken log2 fold change” value of the first is lower: -0.37 for the first, 0.316 for the second.

RRIRHRPPRLPRPRPRPDKCPRP and RRIRLRPPRLPRPRPRPFHAPRP are within 0.2 log units of each other in “shrunken log2 fold change” value: -0.0295 for the first, -0.219 for the second.

Going from RRIRSRPPRLPRPRPRPSDVPRP to RRIRCRPPRLPRPRPRPFLEPRP, the “shrunken log2 fold change” value falls from -0.221 to -0.472.

Going from RRIRVRPPRLPRPRPRPVMWPRP to RRIRERPPRLPRPRPRPCTIPRP, the “shrunken log2 fold change” value falls from 0.365 to -0.487.

Going from RRIRARPPRLPRPRPRPGRQPRP to RRIRMRPPRLPRPRPRPDRVPRP, the “shrunken log2 fold change” value falls from 0.706 to 0.0719.

First: RRIRARPPRLPRPRPRPESCPRP
Second: RRIRIRPPRLPRPRPRPDFDPRP
The “shrunken log2 fold change” value of the first is higher: 0.869 for the first, -0.137 for the second.

RRIRNRPPRLPRPRPRPQAQPRP and RRIRPRPPRLPRPRPRPQQTPRP are within 0.2 log units of each other in “shrunken log2 fold change” value: -0.0086 for the first, 0.183 for the second.

First: RRIRCRPPRLPRPRPRPLKHPRP
Second: RRIRRRPPRLPRPRPRPGVIPRP
The “shrunken log2 fold change” value of the first is lower: -0.584 for the first, -0.0223 for the second.

First: RRIRYRPPRLPRPRPRPNACPRP
Second: RRIRYRPPRLPRPRPRPREQPRP
The “shrunken log2 fold change” value of the first is higher: -0.047 for the first, -0.659 for the second.

Compared with RRIRVRPPRLPRPRPRPPHWPRP, RRIRIRPPRLPRPRPRPVMRPRP is lower in “shrunken log2 fold change” value: 0.489 for the first, 0.144 for the second.

Compared with RRIRWRPPRLPRPRPRPSRTPRP, RRIRVRPPRLPRPRPRPQEVPRP is lower in “shrunken log2 fold change” value: 0.188 for the first, -0.186 for the second.

Compared with RRIRARPPRLPRPRPRPWCQPRP, RRIRKRPPRLPRPRPRPHMIPRP is lower in “shrunken log2 fold change” value: -0.031 for the first, -0.335 for the second.

First: RRIRCRPPRLPRPRPRPRCCPRP
Second: RRIRSRPPRLPRPRPRPPHAPRP
The “shrunken log2 fold change” value of the first is lower: -0.245 for the first, 0.629 for the second.

First: RRIRERPPRLPRPRPRPRYWPRP
Second: RRIRVRPPRLPRPRPRPGAAPRP
The “shrunken log2 fold change” value of the first is lower: 0.185 for the first, 0.653 for the second.

RRIRNRPPRLPRPRPRPEYKPRP and RRIRHRPPRLPRPRPRPPYVPRP are within 0.2 log units of each other in “shrunken log2 fold change” value: -0.203 for the first, -0.0952 for the second.

RRIRERPPRLPRPRPRPEIFPRP and RRIRFRPPRLPRPRPRPYKPPRP are within 0.2 log units of each other in “shrunken log2 fold change” value: -0.00264 for the first, 0.108 for the second.

Going from RRIRKRPPRLPRPRPRPVEAPRP to RRIRKRPPRLPRPRPRPMCLPRP, the “shrunken log2 fold change” value falls from 0.657 to -0.0392.

First: RRIRLRPPRLPRPRPRPQNDPRP
Second: RRIRSRPPRLPRPRPRPRQLPRP
The “shrunken log2 fold change” value of the first is lower: -0.271 for the first, 0.0648 for the second.

First: RRIRPRPPRLPRPRPRPIQDPRP
Second: RRIRTRPPRLPRPRPRPGDSPRP
The “shrunken log2 fold change” value of the first is lower: -0.239 for the first, 0.152 for the second.

RRIRPRPPRLPRPRPRPKGSPRP and RRIRTRPPRLPRPRPRPQVQPRP are within 0.2 log units of each other in “shrunken log2 fold change” value: 0.0684 for the first, -0.0311 for the second.

RRIRGRPPRLPRPRPRPPEPPRP and RRIRMRPPRLPRPRPRPWPGPRP are within 0.2 log units of each other in “shrunken log2 fold change” value: 0.397 for the first, 0.528 for the second.

First: RRIRFRPPRLPRPRPRPDMIPRP
Second: RRIRVRPPRLPRPRPRPIQCPRP
The “shrunken log2 fold change” value of the first is lower: -0.241 for the first, 0.078 for the second.

First: RRIRSRPPRLPRPRPRPCHIPRP
Second: RRIRKRPPRLPRPRPRPARKPRP
The “shrunken log2 fold change” value of the first is lower: -0.872 for the first, -0.0215 for the second.

Going from RRIRDRPPRLPRPRPRPKTAPRP to RRIRMRPPRLPRPRPRPTEDPRP, the “shrunken log2 fold change” value rises from 0.00938 to 1.9.

RRIRMRPPRLPRPRPRPQCFPRP and RRIRDRPPRLPRPRPRPLDDPRP are within 0.2 log units of each other in “shrunken log2 fold change” value: 0.275 for the first, 0.459 for the second.

First: RRIRIRPPRLPRPRPRPRYHPRP
Second: RRIRPRPPRLPRPRPRPPVLPRP
The “shrunken log2 fold change” value of the first is lower: -1.12 for the first, -0.0339 for the second.

RRIRTRPPRLPRPRPRPACPPRP and RRIRVRPPRLPRPRPRPLPWPRP are within 0.2 log units of each other in “shrunken log2 fold change” value: 0.178 for the first, 0.196 for the second.

RRIRTRPPRLPRPRPRPTIAPRP and RRIRVRPPRLPRPRPRPMIYPRP are within 0.2 log units of each other in “shrunken log2 fold change” value: -0.372 for the first, -0.38 for the second.

RRIRKRPPRLPRPRPRPKKAPRP and RRIRHRPPRLPRPRPRPFPTPRP are within 0.2 log units of each other in “shrunken log2 fold change” value: 0.0547 for the first, -0.0427 for the second.

First: RRIRERPPRLPRPRPRPLYKPRP
Second: RRIRCRPPRLPRPRPRPQIFPRP
The “shrunken log2 fold change” value of the first is lower: -0.769 for the first, 2.2 for the second.

RRIRNRPPRLPRPRPRPYDKPRP was tested, and the “shrunken log2 fold change” value was -0.388.
